Test results: paper PMC4797284

Key:
[1] = molecular target: RepDE, chimera of the 21 kDa fragment of RepD fused to the 14 kDa fragment of RepE (residues 35-314) (Staphylococcus aureus) (UniProt P03065); experiment: crystal structure
[2] = molecular target: RepDN, chimera of the 21 kDa fragment of RepD fused to the 14 kDa fragment of RepN (residues 35-314) (Staphylococcus aureus) (UniProt P03065); experiment: crystal structure
[3] = molecular target: RepSTK1, core domain of the replication initiator protein of cryptic plasmid pSTK1 from Geobacillus stearothermophilus (residues 1-269) (Geobacillus stearothermophilus); experiment: crystal structure; RepSTK1 crystals, space group P2(1)2(1)2(1), four molecules per asymmetric unit; protein dialysed against 50 mM Tris-HCl pH 7.5, 700 mM KCl; grown at 294 K as described in ref. 27; data at 100 K

In the case of “RepDE, chimera of the 21 kDa fragment of RepD fused to the 14 kDa fragment of RepE (residues 35-314) (from UniProt P03065;P12053)”, the stoichiometry N [1] is reported as 2.

“RepDN, chimera of the 21 kDa fragment of RepD fused to the 14 kDa fragment of RepN (residues 35-314) (from UniProt P03065;P19529)” gave a stoichiometry N [2] of 2.

Work on “RepSTK1, core domain of the replication initiator protein of cryptic plasmid pSTK1 from Geobacillus stearothermophilus (residues 1-269) (domain or fragment)” yielded a stoichiometry N [3] of 2.
